From patent US20100119520A1 (US Dept. of Health and Human Services, published 2010)

What was measured:
[1] = molecular target: T1, anthrax edema factor (EF) (Bacillus anthracis, UniProt P40136 34-800); assay: ELISA, EF coated at 5 ug/ml
T1 sequence: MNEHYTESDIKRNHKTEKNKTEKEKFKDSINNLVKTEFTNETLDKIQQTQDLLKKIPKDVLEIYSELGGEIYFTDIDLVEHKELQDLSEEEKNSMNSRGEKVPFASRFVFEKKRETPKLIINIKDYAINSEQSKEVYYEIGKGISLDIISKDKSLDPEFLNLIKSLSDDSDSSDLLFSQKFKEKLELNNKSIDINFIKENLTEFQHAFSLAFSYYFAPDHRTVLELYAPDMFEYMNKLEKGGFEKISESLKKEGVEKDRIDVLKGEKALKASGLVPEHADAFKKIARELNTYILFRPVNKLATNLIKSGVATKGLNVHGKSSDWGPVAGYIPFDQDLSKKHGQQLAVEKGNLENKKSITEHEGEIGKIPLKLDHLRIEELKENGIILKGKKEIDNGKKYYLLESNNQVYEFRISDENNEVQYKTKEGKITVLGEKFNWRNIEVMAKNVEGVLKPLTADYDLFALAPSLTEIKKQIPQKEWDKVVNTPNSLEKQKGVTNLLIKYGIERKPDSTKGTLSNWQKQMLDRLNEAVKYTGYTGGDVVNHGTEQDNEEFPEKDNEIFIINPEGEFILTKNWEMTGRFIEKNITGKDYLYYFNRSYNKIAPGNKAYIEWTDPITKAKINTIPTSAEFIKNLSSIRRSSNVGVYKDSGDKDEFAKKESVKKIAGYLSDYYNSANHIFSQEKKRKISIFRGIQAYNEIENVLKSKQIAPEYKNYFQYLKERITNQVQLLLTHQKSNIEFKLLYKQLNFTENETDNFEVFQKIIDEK

[2] = molecular target: T2, bovine serum albumin (bovine, UniProt P02769 25-607); assay: ELISA, protein coated at 10 ug/ml
T2 construct: also called BSA
T2 sequence (P02769 25-607 limits assumed): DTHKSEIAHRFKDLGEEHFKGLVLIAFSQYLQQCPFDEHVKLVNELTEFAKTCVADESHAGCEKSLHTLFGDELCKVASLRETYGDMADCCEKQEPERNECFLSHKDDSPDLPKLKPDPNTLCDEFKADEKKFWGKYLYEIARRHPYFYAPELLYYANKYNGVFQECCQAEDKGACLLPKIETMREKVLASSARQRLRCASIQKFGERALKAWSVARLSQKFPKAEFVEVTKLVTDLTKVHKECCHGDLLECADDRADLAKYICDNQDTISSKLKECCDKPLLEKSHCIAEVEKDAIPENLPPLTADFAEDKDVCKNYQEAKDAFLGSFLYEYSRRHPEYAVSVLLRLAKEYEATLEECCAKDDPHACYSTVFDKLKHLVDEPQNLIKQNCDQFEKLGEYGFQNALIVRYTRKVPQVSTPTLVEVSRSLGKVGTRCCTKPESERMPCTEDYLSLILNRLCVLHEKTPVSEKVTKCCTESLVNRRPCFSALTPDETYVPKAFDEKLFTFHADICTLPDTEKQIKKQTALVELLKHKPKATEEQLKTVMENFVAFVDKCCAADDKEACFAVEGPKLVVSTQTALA

[3] = molecular target: lysozyme (Gallus gallus (Chicken), UniProt P00698 19-147); assay: ELISA, protein coated at 10 ug/ml
Chain of lysozyme (P00698 19-147 limits assumed): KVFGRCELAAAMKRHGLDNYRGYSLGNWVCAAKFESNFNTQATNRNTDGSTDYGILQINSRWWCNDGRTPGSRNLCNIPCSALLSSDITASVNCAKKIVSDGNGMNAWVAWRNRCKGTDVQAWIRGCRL

[4] = molecular target: T3, anthrax lethal factor (LF) (Bacillus anthracis, UniProt P15917 34-809); assay: cell-based or functional assay
T3 sequence: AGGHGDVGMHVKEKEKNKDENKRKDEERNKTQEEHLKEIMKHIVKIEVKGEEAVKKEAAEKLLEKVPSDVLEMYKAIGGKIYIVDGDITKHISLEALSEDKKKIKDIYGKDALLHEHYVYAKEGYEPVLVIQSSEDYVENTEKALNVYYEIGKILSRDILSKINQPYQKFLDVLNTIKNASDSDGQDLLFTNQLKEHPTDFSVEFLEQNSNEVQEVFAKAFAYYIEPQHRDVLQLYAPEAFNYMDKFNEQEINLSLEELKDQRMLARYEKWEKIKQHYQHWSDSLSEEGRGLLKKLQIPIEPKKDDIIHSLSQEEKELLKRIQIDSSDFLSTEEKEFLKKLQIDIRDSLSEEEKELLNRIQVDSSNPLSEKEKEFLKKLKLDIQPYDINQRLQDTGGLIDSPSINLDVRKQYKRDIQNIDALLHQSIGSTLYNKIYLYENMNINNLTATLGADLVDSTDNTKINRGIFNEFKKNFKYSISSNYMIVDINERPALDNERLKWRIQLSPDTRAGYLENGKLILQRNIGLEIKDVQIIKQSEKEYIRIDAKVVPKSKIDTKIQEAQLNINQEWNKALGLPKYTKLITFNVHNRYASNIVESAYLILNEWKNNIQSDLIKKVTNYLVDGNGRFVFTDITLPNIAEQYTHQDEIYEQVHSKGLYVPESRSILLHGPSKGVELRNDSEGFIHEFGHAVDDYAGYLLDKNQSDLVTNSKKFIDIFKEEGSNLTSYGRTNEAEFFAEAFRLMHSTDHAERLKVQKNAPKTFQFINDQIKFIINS

[5] = molecular target: anthrax protective antigen (PA), purified (Bacillus anthracis, UniProt P13423 30-764); assay: Western blot of purified toxin proteins; PA as negative control
Chain of anthrax protective antigen (PA), purified (P13423 30-764 limits assumed): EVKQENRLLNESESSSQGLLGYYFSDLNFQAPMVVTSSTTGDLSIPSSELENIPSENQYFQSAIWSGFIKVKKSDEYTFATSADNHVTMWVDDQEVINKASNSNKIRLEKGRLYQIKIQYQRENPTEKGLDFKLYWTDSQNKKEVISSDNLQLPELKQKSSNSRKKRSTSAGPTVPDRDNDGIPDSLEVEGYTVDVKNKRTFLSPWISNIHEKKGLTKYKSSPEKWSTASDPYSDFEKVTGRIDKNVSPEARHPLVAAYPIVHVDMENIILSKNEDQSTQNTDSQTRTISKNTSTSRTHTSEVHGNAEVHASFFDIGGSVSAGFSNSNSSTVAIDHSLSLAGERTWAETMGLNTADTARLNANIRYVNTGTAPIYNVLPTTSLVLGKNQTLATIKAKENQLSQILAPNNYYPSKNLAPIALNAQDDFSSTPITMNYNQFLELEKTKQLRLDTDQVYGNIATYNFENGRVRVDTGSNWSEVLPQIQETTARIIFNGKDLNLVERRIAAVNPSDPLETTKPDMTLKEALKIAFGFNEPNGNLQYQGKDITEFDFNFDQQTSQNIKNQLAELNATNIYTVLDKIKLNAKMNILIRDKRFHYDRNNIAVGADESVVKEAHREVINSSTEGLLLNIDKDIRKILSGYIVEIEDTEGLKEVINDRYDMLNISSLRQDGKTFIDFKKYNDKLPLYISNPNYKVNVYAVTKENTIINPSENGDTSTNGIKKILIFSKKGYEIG

[6] = molecular target: T1, anthrax edema factor (EF); assay: Western blot of purified toxin proteins (SDS-PAGE) probed with the mAb
[7] = molecular target: T3, anthrax lethal factor (LF); assay: SPR (BIAcore 3000), LF immobilized on CM3 chip, Fab injected
[8] = molecular target: T1, anthrax edema factor (EF); assay: Western blot of purified toxin proteins (SDS-PAGE) probed with the mAb; remark: listed apart in the source
[9] = molecular target: T3, anthrax lethal factor (LF); assay: ELISA, LF coated at 5 ug/ml
[10] = molecular target: T1, anthrax edema factor (EF)
[11] = molecular target: T1, anthrax edema factor (EF); assay: cell-based or functional assay
[12] = molecular target: T1, anthrax edema factor (EF); assay: SPR (BIAcore), IgG immobilized on CM5 chip, recombinant EF injected, 1:1 model

B1: anti-EF clone EF15A (antibody, V domains shown)
VH: VQLLEESGGGVVQPGRSLRLSCTASGFTFSNYGMQWVRQAPGKRLEWVAFISYSGSNKQYADSVRGRFTISRDNSKNILYLQMNSLRSEDTAVYYCARDSHYLDYLPDAFDYWGQGTVVTVS
VL: ELVMTQSPSLLSASVGDRVTITCRASQGISNYLAWFQQKPGKAPKRLIFTAYRLESGVPSRFSGSMSGTEFTLTISSLEPEDFATYYCLQHSAYPPTFGQGTKLEIKR
- binding result [1]: binds
- binding result [2]: no binding
- binding result [3]: no binding

B2: anti-anthrax LF11H monoclonal antibody (IgG) (antibody, V domains shown)
VH: VQLLEQSGAEVKKPGESLKISCKGSGYSFTNYWIGWVRQMPGKGLEWMGIIYPDDSDTRYSPSFQGQVTISFDKSINTAYLQWSSLKASDTAIYYCARALWFRDWGKMDVWGKGTTVTVS
VL: ELQMTQSPSSLSASVGDRVTITCRASQGIRNDLGWYQQKPGKAPKLLIYAASSLQSGVPSRFSGSGSGTDFTLTISSLQPEDFATYYCLQDYTYPWTFGQGTKLEIKR
- EC50 of neutralization of LT toxicity, RAW264.7 macrophage viability (MTT) [4]: 62.6 µg/mL
- binding result [2]: no binding
- binding result [3]: no binding
- binding result [5]: no binding
- binding result [6]: no binding

B3: anti-anthrax LF11H Fab (Fab, V domains shown)
VH: B2 VH
VL: B2 VL
- Kd [7]: 7.4 nM
- koff [7]: 0.001 s⁻¹
- kon [7]: 130000 M⁻¹ s⁻¹

B4: anti-anthrax LF10E monoclonal antibody (IgG) (antibody, V domains shown)
VH: EVQLLESGGGLVKPGGSLRLTCAASGFTFSSYAMHWVRQAPEKGLEWVSSISGSGGGTWYADSVKGRFTISRDNSRNTLYLQLNSLRAEDTAVYYCARPKYTGYENPFDYWGQGTLVTVS
VL: ELQMTQSPSSLSASVGDRVTITCRASQDIRNYLAWYQQEPGKAPRLLIYYASKLQSGVPSRFSGRGSGTDYSLTISSLQPEDFATYYCQQYDSVPLTFGGGTKMEIKR
- EC50 of neutralization of LT toxicity, RAW264.7 macrophage viability (MTT) [4]: 0.0156 µg/mL
- binding result [2]: no binding
- binding result [3]: no binding
- binding result [5]: no binding
- binding result [8]: no binding

B5: anti-anthrax LF10E Fab (Fab, V domains shown)
VH: B4 VH
VL: B4 VL
- Kd [7]: 0.69 nM
- koff [7]: 0.00019 s⁻¹
- kon [7]: 270000 M⁻¹ s⁻¹

B6: anti-LF clone LF9D (antibody, V domains shown)
VH: EVQLLESGGGLVKPGGSLRLSCAASGFTFSSYAMHWVRQTPEKGLEWVSTISSIGGSTWYSDSVKGRFTISRDNSKNTLFLHMKSLRAEDTAVYYCARDFFSQVGWSTPNNWFDPWGQGTLVTVS
VL: AAELTQSPSTLSASVGDRVTITCRASQGIATYLNWYQQIPGKAPKLLIYAASTLESGVPSRFSGSGSGAEFTLTISSLQPGDFATYYCQQFYSMPLTFGGGTKVEIKR
- binding result [9]: binds
- binding result [2]: no binding
- binding result [3]: no binding

B7: anti-EF clone EF14H (antibody, V domains shown)
VH: VQLLEESGGGLVKPGGSLRLSCAASGFTFSNYSMNWVRQAPGKGLEWVGFIRTKAKGGTTEYAASVKGRFTISRDDSKSIAYLQMNSLKTEDTAVYYCTPAGIIIRLVTPIYYYYMDVWGKGTTVTVS
VL: AAELTQSPSSLSASVGDRVTITCRASQGIRNYLAWYQQKPGKVPKLLIYAASTLQSGVPSRFSGSGSGTDFTLTISSLQPEDVATYYCQKYSSAPFTFGPGTKVGIKR
- EC50 (read off the curve) [10]: ~0.05 µg/mL
- binding result [2]: no binding
- binding result [3]: no binding

B8: anti-anthrax EF13D monoclonal antibody (IgG) (antibody, V domains shown)
VH: EVQLLESGAEVKKPGSSVKVSCKVSGGTFSSFGISWVRQAPGQGLEWMGLIIPILGTANYAQKFQGRLTITADESTSTVYMELSSLRSEDTAVYYCATDPYHNWGEWDLDYWGQGTLVTVS
VL: AAELTQSPSSLSASVGDRVSITCRASQSISNYLSWYQQKPGKAPQLLIYDASTLQSGVPSRFSGSGSGTDFTLTISSLQPEDFATYYCQCGYGTYPTFGGGTQVEIKR
- EC50 of inhibition of ET-mediated cAMP production in RAW264.7 cells [11]: 0.028 µg/mL
- binding result [2]: no binding
- binding result [3]: no binding
- Kd [12]: 9.7 nM
- koff [12]: 0.0004 s⁻¹
- kon [12]: 41200 M⁻¹ s⁻¹
